One sequence from article PMC5318870 can be followed below.

For orientation: Kd means a measure of binding affinity in units of concentration. A lower Kd goes with tighter binding.

For the series, the target named is T1, RSV attachment glycoprotein G (RSV-G Protein, His Tag) (respiratory syncytial virus) (UniProt O36633).
T1 sequence: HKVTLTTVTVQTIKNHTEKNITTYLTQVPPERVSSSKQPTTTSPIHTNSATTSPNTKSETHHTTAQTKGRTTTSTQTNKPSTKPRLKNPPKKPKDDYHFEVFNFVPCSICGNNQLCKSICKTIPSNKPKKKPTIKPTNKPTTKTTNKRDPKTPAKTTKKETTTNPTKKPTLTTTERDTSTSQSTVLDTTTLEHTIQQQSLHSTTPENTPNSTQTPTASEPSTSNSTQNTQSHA
As to the kind of experiment: fluorescence polarization. As to conditions: FP: PBS pH 7.4, 0.5 nM aptamer; filter binding: PBS, BSA, 0.1% Tween 20, 0.1 ug/ml poly(dIdC), 50 nM aptamer, 20 min RT; ALPHA: HBSS, 1 mg/ml BSA, 0.05 ug/ml …. For orientation: In fluorescence polarisation assays a small probe gives low polarisation when free and higher when bound to something large.

Consider “TAGGGAAGAGAAGGACATATGATAGTGCGGTGAGCCGTCGGACATACAAATACTTGACTAGTACATGACCACTTGA [H8 (Alexa Fluor 488)]”, for which the Kd is 30 nM.
